Common to all, as to assay: cell-based or functional assay
In test [1] the target is envelope glycoprotein of virus isolate HIV-1 CM.235 (HIV-1 CM.235).
For test [2], the target named is envelope glycoprotein of virus isolate HIV-1 BZ162 (HIV-1 BZ162).
For test [3], the target named is envelope glycoprotein of virus isolate HIV-1 NL4-3 (HIV-1 NL4-3).
Test [4] has as its target envelope glycoprotein of virus isolate HIV-1 94ZW103 (HIV-1 94ZW103).
Test [5] addresses envelope glycoprotein of virus isolate HIV-1 DJ258 (HIV-1 DJ258).
The target of test [6] is envelope glycoprotein of virus isolate HIV-1 UG270 (HIV-1 UG270).
The target of test [7] is envelope glycoprotein of virus isolate HIV-1 Case C 7/86 (HIV-1 Case C 7/86).
The target of test [8] is envelope glycoprotein of virus isolate HIV-1 JFRL (HIV-1 JFRL).

B1: C52F peptide (peptide)
peptide: NHTTWMEWDREINNYTSLIHSLIEESQNLQEKNEQELLELDKWASLWNWFNIKIK
In the case of B1, the “IC50 (nM), Human PBMC Infectivity Assays” value in test [1] amounted to 11 nM; in test [2], 2 nM; in test [3] it was 23 nM; in test [4], 4 nM; in test [5], 9 nM; in test [6] it was 68 nM. Moreover, the “IC50 (nM), Human PBMC Infectivity Assays” value in test [7] was determined as 49 nM; in test [8], 5 nM.

B2: C52L peptide (peptide)
peptide: NHTTWMEWDREINNYTSLIHSLFEESQNLQEKAEQELFELDKWASLWNWFNIKIK
Consider B2, for which the “IC50 (nM), Human PBMC Infectivity Assays” value in test [2] came out at 3 nM; in test [3] it was 20 nM; in test [4], 3 nM; in test [5], 11 nM; in test [6], 61 nM; in test [7] it was 17 nM. In addition, the “IC50 (nM), Human PBMC Infectivity Assays” value in test [8] was 6 nM.

The values above are taken from patent US20070134221A1 (published 2007).
